Reference: article PMC5586245, “2017 publication guidelines for structural modelling of small-angle scattering data from biomolecules in solution: an update” (Acta Crystallographica. Section D, Structural Biology, 2017)

Molecular target: the molecule itself
Assay: SEC-SAXS; inline SEC (5 x 150 mm Superdex S200, 0.45 ml/min) with SAXS at the Australian Synchrotron SAXS/WAXS beamline, sheath-flow cell; 25 mM MOPS, 250 mM NaCl, 50 mM KCl, 2 mM TCEP, 0.1% NaN3 pH 7.5; 22 °C; mass from I(0), Porod volume and fit of crystal structures

B1: glucose isomerase (enzyme)
chain: not shown
notes: glucose isomerase (xylose isomerase), Streptomyces rubiginosus, UniProt P24300 residues 2-388; Tetramer; M from chemical composition 172912 Da for the tetramer; also called GI; GI (tetramer); source: bought: Hampton Research (HR7-100); stored in diluted form, repeated freeze-thaw cycles; no purification step before the SEC-SAXS column
  stoichiometry N: 4
